{"source": "the supplement of paper PMC9112550", "about": "“Optimization of the antimicrobial peptide Bac7 by deep mutational scanning” (BMC Biology, 2022);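 further: peptides expressed intracellularly from a pBAD plasmid library in pooled LB shake-flask culture, induced with 0.3% L-arabinose, DNA abundance read by NGS, three biological replicates, DESeq2 with apeglm shrinkage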", "data": [{"tested_on": "Escherichia coli TOP10", "assay": "shrunken log2 fold change of peptide-encoding DNA abundance (4.5 h post-induction vs induction); higher = less antimicrobial activity (less host growth inhibition)", "conditions": "time post-induction: 4.5 h; library: site-saturation at positions 5, 18, 19, 20", "values": [{"sequence": "RRIRCRPPRLPRPRPRPCIVPRP", "shrunken log2 fold change": -0.718}, {"sequence": "RRIRQRPPRLPRPRPRPKRTPRP", "shrunken log2 fold change": 0.00512}, {"sequence": "RRIRKRPPRLPRPRPRPCNLPRP", "shrunken log2 fold change": 0.0104}, {"sequence": "RRIRSRPPRLPRPRPRPHDMPRP", "shrunken log2 fold change": -0.335}, {"sequence": "RRIRMRPPRLPRPRPRPLYWPRP", "shrunken log2 fold change": 0.0465}, {"sequence": "RRIRWRPPRLPRPRPRPEKGPRP", "shrunken log2 fold change": 0.0282}, {"sequence": "RRIRDRPPRLPRPRPRPSIEPRP", "shrunken log2 fold change": 0.089}, {"sequence": "RRIRNRPPRLPRPRPRPWNSPRP", "shrunken log2 fold change": -0.281}, {"sequence": "RRIRERPPRLPRPRPRPHMPPRP", "shrunken log2 fold change": -0.197}, {"sequence": "RRIRSRPPRLPRPRPRPMLGPRP", "shrunken log2 fold change": 0.106}, {"sequence": "RRIRARPPRLPRPRPRPFTRPRP", "shrunken log2 fold change": 0.105}, {"sequence": "RRIRFRPPRLPRPRPRPVKSPRP", "shrunken log2 fold change": -0.159}, {"sequence": "RRIRQRPPRLPRPRPRPTLQPRP", "shrunken log2 fold change": 0.276}, {"sequence": "RRIRSRPPRLPRPRPRPYCYPRP", "shrunken log2 fold change": -0.0398}, {"sequence": "RRIRARPPRLPRPRPRPFWTPRP", "shrunken log2 fold change": 0.29}, {"sequence": "RRIRVRPPRLPRPRPRPGNCPRP", "shrunken log2 fold change": 0.0986}, {"sequence": "RRIRERPPRLPRPRPRPKMNPRP", "shrunken log2 fold change": -0.642}, {"sequence": "RRIRSRPPRLPRPRPRPTWDPRP", "shrunken log2 fold change": 0.53}, {"sequence": "RRIRGRPPRLPRPRPRPEQCPRP", "shrunken log2 fold change": 0.0643}, {"sequence": "RRIRNRPPRLPRPRPRPWTWPRP", "shrunken log2 fold change": -0.0415}, {"sequence": "RRIRARPPRLPRPRPRPCSFPRP", "shrunken log2 fold change": 0.134}, {"sequence": "RRIRSRPPRLPRPRPRPQNCPRP", "shrunken log2 fold change": 0.0871}, {"sequence": "RRIRCRPPRLPRPRPRPIRMPRP", "shrunken log2 fold change": -0.339}, {"sequence": "RRIRERPPRLPRPRPRPMCRPRP", "shrunken log2 fold change": 0.03}, {"sequence": "RRIRPRPPRLPRPRPRPWSIPRP", "shrunken log2 fold change": -0.0637}, {"sequence": "RRIRTRPPRLPRPRPRPAHIPRP", "shrunken log2 fold change": 0.0726}, {"sequence": "RRIRCRPPRLPRPRPRPEKLPRP", "shrunken log2 fold change": -0.077}, {"sequence": "RRIRRRPPRLPRPRPRPHNGPRP", "shrunken log2 fold change": -0.172}, {"sequence": "RRIRTRPPRLPRPRPRPHADPRP", "shrunken log2 fold change": 0.0427}, {"sequence": "RRIRMRPPRLPRPRPRPECYPRP", "shrunken log2 fold change": -0.192}, {"sequence": "RRIRTRPPRLPRPRPRPYEYPRP", "shrunken log2 fold change": 0.0353}, {"sequence": "RRIRRRPPRLPRPRPRPGERPRP", "shrunken log2 fold change": 0.0829}, {"sequence": "RRIRDRPPRLPRPRPRPLWVPRP", "shrunken log2 fold change": -0.0158}, {"sequence": "RRIRIRPPRLPRPRPRPEKPPRP", "shrunken log2 fold change": -0.0144}, {"sequence": "RRIRERPPRLPRPRPRPKMGPRP", "shrunken log2 fold change": 0.00452}, {"sequence": "RRIRSRPPRLPRPRPRPLQIPRP", "shrunken log2 fold change": 0.0322}, {"sequence": "RRIRTRPPRLPRPRPRPTSCPRP", "shrunken log2 fold change": 0.104}, {"sequence": "RRIRPRPPRLPRPRPRPPTEPRP", "shrunken log2 fold change": 0.306}, {"sequence": "RRIRSRPPRLPRPRPRPHYRPRP", "shrunken log2 fold change": 0.0349}, {"sequence": "RRIRTRPPRLPRPRPRPDIRPRP", "shrunken log2 fold change": 0.0296}, {"sequence": "RRIRNRPPRLPRPRPRPVNRPRP", "shrunken log2 fold change": 0.00717}, {"sequence": "RRIRVRPPRLPRPRPRPSEIPRP", "shrunken log2 fold change": -0.623}, {"sequence": "RRIRYRPPRLPRPRPRPGKNPRP", "shrunken log2 fold change": -0.13}, {"sequence": "RRIRHRPPRLPRPRPRPVWPPRP", "shrunken log2 fold change": 0.217}, {"sequence": "RRIRQRPPRLPRPRPRPLKSPRP", "shrunken log2 fold change": 0.138}, {"sequence": "RRIRCRPPRLPRPRPRPGCDPRP", "shrunken log2 fold change": 0.258}, {"sequence": "RRIRARPPRLPRPRPRPYNFPRP", "shrunken log2 fold change": -0.192}, {"sequence": "RRIRMRPPRLPRPRPRPTKTPRP", "shrunken log2 fold change": 0.334}, {"sequence": "RRIRGRPPRLPRPRPRPPPGPRP", "shrunken log2 fold change": 1.36}, {"sequence": "RRIRYRPPRLPRPRPRPWSDPRP", "shrunken log2 fold change": -0.0783}]}]}
